Measurements as given in patent publication US20240109963A1 (AB THERAPEUTICS, published 2024).

What was measured:
[1] = target: T1, full-length human Claudin 18.2 on MIA PaCa-2 cells (MIA PaCa-2+ Claudin 18.2) (human, UniProt P56856-2 1-261); experiment: cell-based or functional assay
T1 sequence (looked up): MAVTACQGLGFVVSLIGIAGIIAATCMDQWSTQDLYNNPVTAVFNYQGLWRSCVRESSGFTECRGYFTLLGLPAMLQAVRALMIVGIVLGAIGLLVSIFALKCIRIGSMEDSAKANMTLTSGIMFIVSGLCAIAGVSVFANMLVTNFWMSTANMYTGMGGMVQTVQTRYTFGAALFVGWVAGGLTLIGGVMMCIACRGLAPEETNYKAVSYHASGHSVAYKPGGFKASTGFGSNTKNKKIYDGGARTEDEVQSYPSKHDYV

CD3 on Jurkat cells = target: T2, CD3 on Jurkat cells; experiment: flow cytometry on Jurkat cells, CD3 binding (T cell) (summary table)
T2 construct: whole, on cells; also called CD3+ Jurkat cells

[2] = target: T3, Claudin 18.2 on CHO cells (CHO+ Claudin 18.2) (UniProt P56856-2 1-261); experiment: flow cytometry, unpurified supernatant on CHO+ Claudin 18.2 cells, FITC-positive cells
T3 construct: whole, on cells; also called CHO_18.2
T3 sequence (looked up): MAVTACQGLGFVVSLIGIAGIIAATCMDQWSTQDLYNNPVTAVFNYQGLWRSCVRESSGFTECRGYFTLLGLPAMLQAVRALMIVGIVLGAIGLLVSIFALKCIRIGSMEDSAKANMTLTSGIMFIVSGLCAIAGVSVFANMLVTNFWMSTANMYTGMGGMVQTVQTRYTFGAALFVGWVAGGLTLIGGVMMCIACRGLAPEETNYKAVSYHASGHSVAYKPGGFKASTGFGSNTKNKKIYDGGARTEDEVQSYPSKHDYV
Experimental: To compare the half maximal effective concentration (EC50) of the lead BsAbs, 8.5×10⁴ cells/well of CHO+ Claudin 18.2 cells in 100 μl FACS buffer were seeded in a V-bottom 96-well plate. […] The final concentrations of the BsAbs were 10 μg/ml, 1 μg/ml, 100 ng/ml, 10 ng/ml, 1 ng/ml, 100 pg/ml, 10 pg/ml, and 1 pg/ml. After incubating the plate at RT for 45 minutes, the cells were washed twice with the FACS buffer and cell pellets were resuspended in 100 μl FACS buffer containing goat anti-human-FITC (1:200) for 30 minutes at RT in dark. Afterwards, the cells were washed twice with FACS buffer, and cell pellets were resuspended in 120 μl FACS buffer. The percentage of FITC-positive cells were analyzed by flow cytometry.

T2 sequence (P07766 23-207, chain 1 of 3): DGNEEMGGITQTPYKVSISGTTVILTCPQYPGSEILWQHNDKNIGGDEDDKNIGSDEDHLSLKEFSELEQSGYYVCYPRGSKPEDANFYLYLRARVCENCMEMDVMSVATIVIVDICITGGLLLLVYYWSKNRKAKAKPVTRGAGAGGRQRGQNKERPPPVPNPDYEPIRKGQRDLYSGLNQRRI
T2 sequence (P09693 23-182, chain 2 of 3, further chain): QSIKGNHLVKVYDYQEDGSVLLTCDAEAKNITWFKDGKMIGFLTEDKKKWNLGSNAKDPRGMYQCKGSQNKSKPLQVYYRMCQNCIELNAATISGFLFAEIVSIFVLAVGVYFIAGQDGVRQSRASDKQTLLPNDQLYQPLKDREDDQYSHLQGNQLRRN
T2 sequence (P04234 22-171, chain 3 of 3, further chain): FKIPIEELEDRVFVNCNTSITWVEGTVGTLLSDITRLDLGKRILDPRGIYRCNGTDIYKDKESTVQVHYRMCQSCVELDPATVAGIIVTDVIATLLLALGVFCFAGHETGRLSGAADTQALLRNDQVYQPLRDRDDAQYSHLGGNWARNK

| Binder | T cell activation EC50 (CD69-positive cells) [1] | EC50 (CD3 on Jurkat cells) | EC50 [2] |
| --- | --- | --- | --- |
| Claudin 18.2-1B2/CD3 BsAb (BiSpecific-V1 structure) (bispecific antibody) VHH-Fc: not shown heavy: not shown light: QIVLSQSPAILSASPGEKVTMTCRASSSVSYIHWFQQKPGSSPKPWIYATSNLASGVPVRFSGSGSGTSYSLTISRVEAEDAATYYCQQWTSNPPTFGGGTKLEIKRTVAAPSVFIFPPSDEQLKSGTASVVCLLNNFYPREAKVQWKVDNALQSGNSQESVTEQDSKDSTYSLSSTLTLSKADYEKHKVYACEVTHQGLSSPVTKSFNRGEC | 0.056 µg/mL | 58.9 µg/mL |  |
| Claudin 18.2-4G1/CD3 BsAb (BiSpecific-V1 structure) (bispecific antibody, tested as unpurified culture supernatant) VHH-Fc: not shown heavy: not shown light: QIVLSQSPAILSASPGEKVTMTCRASSSVSYIHWFQQKPGSSPKPWIYATSNLASGVPVRFSGSGSGTSYSLTISRVEAEDAATYYCQQWTSNPPTFGGGTKLEIKRTVAAPSVFIFPPSDEQLKSGTASVVCLLNNFYPREAKVQWKVDNALQSGNSQESVTEQDSKDSTYSLSSTLTLSKADYEKHKVYACEVTHQGLSSPVTKSFNRGEC |  |  | ~0.006 µg/mL |
| Claudin 18.2-3C2/CD3 BsAb (BiSpecific-V1 structure) (bispecific antibody, tested as unpurified culture supernatant) VHH-Fc: not shown heavy: not shown light: QIVLSQSPAILSASPGEKVTMTCRASSSVSYIHWFQQKPGSSPKPWIYATSNLASGVPVRFSGSGSGTSYSLTISRVEAEDAATYYCQQWTSNPPTFGGGTKLEIKRTVAAPSVFIFPPSDEQLKSGTASVVCLLNNFYPREAKVQWKVDNALQSGNSQESVTEQDSKDSTYSLSSTLTLSKADYEKHKVYACEVTHQGLSSPVTKSFNRGEC |  |  | ~0.013 µg/mL |
